From the DeepSol protein solubility set

Test: soluble on expression in E. coli; label from the status in PepcDB or PDB records
With “MKALLEWIRKDMKPALGVTEPAAIALACAAARAMTEEPAECLLVRENSGIYKNAFTCGIPGTDKIGNEFAAALGCVAGDKEKGLLVLEEISDADVEAAKRFIEDGKVKVEVSQISSELFIYACVRTEHDCCEAEIRGQHTNICRLVKNGRVLLEKKTRELEETARPGSLTDYTMEEFFRFAKETPVEDLYFIREAYRVNLELAKAALTSERCTLTKSLLAFNGGTDVSGDLRATARFFAGAASEARVLGLDKPAMSITGSGNHGIICTMPLYAMYRVEHHSEESLLRATVLSYLITMYMKEYSGKLSAFCGCAVAAGTGMACAMTFMRGGGFEEVLATLNNMAASIVGMICTGGNHACCMKVLAAVDTAVTSTELALSGKCISPEHGVADVCPEKTMQNIGLIAYPGMTETERVILEIMQNKKGGAKGHEETD” the “soluble on expression in E. coli” value was “not soluble”.
With “MKALTYHGPHHVKVENVPDPGIEQPDDIILRVTATAICGSDLHLYRGKIPQVKHGDIFGHEFMGEVVETGHDVKNIRKGDRVVIPFVIACGDCFFCRLQQYSACENTNDGHGAAMNKKQIPPPAALFGYSHLYGGVPGGQAEYVRVPKGNVGPFKVPPLLSDDKALFLSDILPTAWQAAKNAQIQQGFSVAVFGAGPVGLLTIACARLLGAEQIFVVDHHAWRLRFAEERYGAIPINFDDENDPAEKIIEQTAGHRGVDAVIDAVGFEAKGSLTETVLTNLKLEGSSGKALRQCIAAVRRGGVVSVPGVYAGFIHGFLFGDAFDKGLTFKMGQTHVHAWLGELLPLIEKGLLKPEEIVTHYMPFEEAARGYEIFEKREEECRKVILVPGATSAQAAQKQATGVVNPMPGGVV” the “soluble on expression in E. coli” value was “not soluble”.
In the case of “MKANTIIAGLLSSTLLATAAYAQTPAPADSTRTMSKSTSASESQHMGQWRASKLIGVNVYNQGNEKLGDISEMLIDSEGRIQGVVIGVGGFLGVGQRDVAVTFDKLQWVNTPVSSNTAMNSQTTPAGSGTSTASPAGTTTGAATSTTAANNADRWYPDHAVLNATKDQLKSMPEFKYSK”, the “soluble on expression in E. coli” value is reported as “not soluble”.
With “MKAPAFTEAKLQDPIPAKIYDKNGELVKTLDNGQRHEHVNLKDVPKSMKDAVLATEDNRFYEHGALDYKRLFGAIGKNLTGGFGSEGASTLTQQVVKDAFLSQHKSIGRKAQEAYLSYRLEQEYSKDDIFQVYLNKIYYSDGVTGIKAAAKYYFNKDLKDLNLAEEAYLAGLPQVPNNYNIYDHPKAAEDRKNTVLYLMHYHKRITDKQWEDAKKIDLKANLVNRTPEERQNIDTNQDSEYNSYVNFVKSELMNNKAFKDENLGNVLQSGIKIYTNMDKDVQKTLQNDVDNGSFYKNKDQQVGATILDSKTGGLVAISGGRDFKDVVNRNQATDPHPTGSSLKPFLAYGPAIENMKWATNHAIQDESSYQVDGSTFRNYDTKSHGTVSIYDALRQSFNIPALKAWQSVKQNAGNDAPKKFAAKLGLNYEGDIGPSEVLGGSASEFSPTQLASAFAAIANGGTYNNAHSIQKVVTRDGETIEYDHTSHKAMSDYTAYMLAEMLKGTFKPYGSAYGHGVSGVNMGAKTGTGTYGAETYSQYNLPDNAAKDVWINGFTPQYTMSVWMGFSKVKQYGENSFVGHSQQEYPQFLYENVMSKISSRDGEDFKRPSSVSGSIPSINVSGSQDNNTTNRSTHGGSDTSANSSGTAQSNNNTRSQQSRNSGGLTGIFN” the “soluble on expression in E. coli” value was “soluble”.
For “MKATGFMGPCYAKAMATRYRFGLEEYERLFRGIRDVELLAGEVYRMSPIGPKHAWSVARLNRLFTEALGDRAVVWPQNPIRIPPHSEPQPDLALLRPKSYGEGLPTPEDVLLLVEVAETSLEHDQGLKLSLYAQAGIPEVWVLDLKENRLHVYRTPKAGVYTEHRILLPGEEAEPLAFPGVRIPWS”, the “soluble on expression in E. coli” value was “soluble”.
For “MKAVKPMTDNISVLIMGVDESEIRDKNYGKATRTDALLLATINKNDKSVKLVSIPRDSRVYIKSRDKYDKITHAHVFGGVDSTIDTVENFLDVPVDYYVKFNFKSFIKIVDSLGGITVDVPVEFTEQNSKDEADAVHLKKGRQHLNGEEALALARTRHIDSDYMRGQRQQLVLEAIAQKALSLNSINKIGGLLDAVDKDLKTNLTFDDMMTIAKNSMDSNLKMDKMQVEGTDKYIGGIYYYVPNEKSVNTISTTLQEHLGVTNKNEHKKLLEHHHHHH”, the “soluble on expression in E. coli” value was “soluble”.
With “MKAVTYDTDSELAYIYVLPPKKNRNVRTEELRVNDCLLLDISQDGKIAGFECFGEAAHLCAPFAGKSRLYVKDSDGYHFRVCQHASVRSCYTVYRVTFCFSDGDYQEFAGFDLDGTMYHSAFLQRLTEKLEHHHHHH” the “soluble on expression in E. coli” value was “not soluble”.
With “MKDKIIDNAITLFSEKGYDGTTLDDIAKSVNIKKASLYYHFDSKKSIYEQSVKCCFDYLNNIIMMNQNKSNYSIDALYQFLFEFIFDIEERYIRMYVQLSNTPEEFSGNIYGQIQDLNQSLSKEIAKFYDESKIKMTKEDFQNLILLFLESWYLKASFSQKFGAVEESKSQFKDEVYSLLNIFLKK” the “soluble on expression in E. coli” value was “not soluble”.
In the case of “MKDLDFSKKPLIGVVHLKPLPGSPRYGGDFEEVIEWAIRDAKTYEEAGFDGIIVENFGDSPFSKTLPREVIPAFTVVAKAVKKEVSLPLGINALRNDCIVAYSIAHAVGGSFIRVNVLTGVAFTDQGIIEGCARELWNVKRIIGGDILTLADVHVKHAVHFTNFEDAVKDTVERGLADGIIVTGRRTGESISLEDLILAKRVSSIPVLVGSGVNPRNFRTLFKYADGFIVGTWVKENGKINNPVSLERAKILVRMKNSLMGVLEHHHHHH”, the “soluble on expression in E. coli” value is reported as “not soluble”.
With “MKDLKLDEHTGLVLEGGGMRGVFTCGVLDYLMDHDIRFPYAIGVSAGACNGLSYASRQRGRAKFSNIDLLEKYNYIGLKHLLRKRNILDFDLLFNEFPEHILPYDYDTYFASPERFVMVTTNCMTGEANYFEEKRDKSRVIDIVRASSSLPFVCPVTYVDGVPMLDGGIVDSIPLQRAIADGYTRNVVILTRNRGYRKDTKDIRIPSFVYRKYPKLREALSRRCAVYNEQLEMVEQMEDEGKIIVIRPQKPVMVDRIERDVQKLTEFYEEGYDCARNLFEF” the “soluble on expression in E. coli” value was “soluble”.
In the case of “MKDLVDTTEMYLRTIYELEEEGVTPLRARIAERLEQSGPTVSQTVARMERDGLVVVASDRSLQMTPTGRTLATAVMRKHRLAERLLTDIIGLDINKVHDEASRWEHVMSDEVERRLVKVLKDVSRSPFGNPIPGLDELGVGNSDAAAPGTRVIDAATSMPRKVRIVQINEIFQVETDQFTQLLDADIRVGSEVEIVDRDGHITLSHNGKDVELLDDLAHTIRIEEL”, the “soluble on expression in E. coli” value is reported as “soluble”.
In the case of “MKDSLQTIGVFVRPTHYQNPLFEKLEQAKEWVLKLLEDEGFESFMIDSLDGAKDARLIEKADAFLCLGGDGTILGALRMTHSYNKPCFGVRIGNLGFLSAVELNGLKDFLQDFKQDRIKLEEHLALEGRIGKTSFYAINEIVIAKKKALGVLDIKAYAGHTPFNTYKGDGLIIATPLGSTAYNLSAHGPIVHALSQSYILTPLCDFSLTQRPLVLGAEFCLNFCAHEDALVVIDGQATYDLKANQPLYIQKSPTTTKLLQKNSRDYFKVLKEKLLWGESPSKKRLEHHHHHH”, the “soluble on expression in E. coli” value is reported as “soluble”.
With “MKDVIEKRHIRAEVPIELTWDLSDLYESDKKWETALRVLTDDIKKLDAFKGQLHTSPTTLLHCLLLEEELLMKLTKLYSYANLKESTDRTNPVIQANSSKIAALWTKVHTALSFIHNEILSLEEGTIEKYLTKETKLEPFRKSLLDILQKRQYTLSPETEEALAALGEVHSSPYKIYGMTKLADMDFNSIQDEQGNELPVSFSLFESKYEFSPSVDIRRKAYSSFVSTLKRYKNTVATTYATEVKKQVTLSRLRKFESVTHMLLEPQNVPLEMYNNQLDIIYKELAPHMRRFADLKKKVLGLDQMLFCDLHAPLDPEFNPAITYEEAGKLIQDSLQVLGDEYSAIIKKGFKERWVDLADNVGKSTGAFCSSPYGSHPYILITWQNTMRGCFTLAHEFGHAGHFYLANKNQRIMNVRPSMYFVEAPSTMNELLLAQHLLATTDDKRMRRWVILQLLGTYYHNFVTHLLEGEYQRRVYSLAEEGEALTATTLTEIKTNVLSTFWGNSVEIDEGAGLTWMRQPHYYMGLYSYTYSAGLTASTAVAQMIKEEGQPAVDRWLDVLRAGGTMKPLELMKHAGVDMSKPDAIRKAVSYVGSLIDELERSYEE” the “soluble on expression in E. coli” value was “not soluble”.
With “MKDVVEYLVRYLVDRPEAVRVQVRRGKEGTVYLVEVAPEDKGRLIGKGGRVIESLRTVVRAYAKRKVGVEVR” the “soluble on expression in E. coli” value was “soluble”.
In the case of “MKEGMKVVLVGSPGIEGTWILAKDYDQLLLEKGISREIIEKAKEFKKDIVVQPKALSILDYVVAMHDATEGGIMQAMLEVAKASGYTVSINLDKIVLRRETKIITKALNIDPLRLISSGSFIAVSNTPEKILERISEAYIIGEIKRGDPVLEIK”, the “soluble on expression in E. coli” value is reported as “soluble”.
